Values of other authors in PMC2990782 (Gene therapy, 2010).

Settings: i.v. dosed polyplex; ref [22]

PEG-Cys-Trp-Lys18
time to complete metabolism of plasmid DNA in the circulation: ≤ 3 min
